{"source": "paper PMC9556795", "about": "“Micro-electron diffraction structure of the aggregation-driving N terminus of Drosophila neuronal protein Orb2A reveals amyloid-like β-sheets” (The Journal of Biological Chemistry, 2022)", "biological_target": "the molecule itself", "test": "crystal structure; micro-electron diffraction (micro-ED) of M9I microcrystals grown in batch: 6 mg/ml peptide in 1% DMSO mixed 1:1 with 0.1 M sodium phosphate pH 4.6, 1.5 M NaCl, room temperature; 1.05 Å, direct methods", "data": [{"protein": "MYNKFVNFI (Dissolved in 100% DMSO, then diluted in water or buffer; Terminal protecting groups are not mentioned; also called M9I-WT; wildtype M9I; source: synthetic peptide, bought: Genscript (>98% purity))", "note": "[M9I, the first 9 N-terminal residues of Drosophila Orb2A]", "values": [{"measurement": "binding result", "value": "binds"}]}]}
